Data as given in paper PMC4338369.

Target: alkyl hydroperoxide reductase subunit C (peroxiredoxin) from Amphibacillus xylanus (Amphibacillus xylanus) (UniProt K0J4Q8)
Experiment: SPR

“NADH oxidase from Amphibacillus xylanus (enzyme)” gave a kon of 29 M⁻¹ s⁻¹.
